According to patent US20260159607A1:

Legend:
[1] = biological target: human DCLK1-CAR (on transduced T cells); experiment: flow cytometry of CAR-transduced T cells stained with biotinylated DCLK1 protein (FL2-H), gate 'stained'; controls: T cells 3.19% (small print 3.18%), mock 3.17%
[2] = biological target: mouse DCLK1-CAR (on transduced T cells); experiment: as above

Substance: Biotin-labeled DCLK1 (from UniProt O15075 1-740)
- % stained [1]: 2.73%
- % stained [2]: 11.6%
